Measured values: publication PMC9089897 (2022)

Assays:
[1] = molecular target: T1, biotinylated avi-tagged SARS-CoV-2 (Wuhan) receptor binding domain (RBD) (SARS-CoV-2 (Wuhan strain), UniProt P0DTC2 319-541); assay: BLI
[2] = molecular target: T1, biotinylated avi-tagged SARS-CoV-2 …; assay: BLI; remark: listed apart in the source

B1: THSC20.HVTR26 (IgG) (antibody, V domains shown)
VH: EVQLVESGGGLVQPGGSLRLSCAASGFTVSSNYMSWVRQAPGKGLEWVSAIYSGDSTYYADSVKGRFTISRHNPKNTLYLQMNSLRAEDTAVYYCARLVGALTNIVVSGDGGAFDIWGQGTMVTVSS
VL: SYELTQPASVSGSPGQSITISCTGTSSDVGSYNLVSWYQQHPGKAPKLMIYEVSKRPSGVSNRFSGSKSGNTASLTISGLQAEDEVDYYCCSYAGSSTWVFGGGTKLTVL
B1 gave a koff [1] of 0.000131 s⁻¹ and a Kd [2] of 0.255 nM.

B2: THSC20.HVTR04 (IgG) (antibody, V domains shown)
VH: QVQLVESGGGVVQPGRSLRLSCAASGFTFSNYAIHWVRQAPGKGLEWVAVVSYDGSNKYYAESVKGRFTISRDNSKNTLSLQMISLRPEDTAVYYCASVADTAMVPEWYFDLWGQGTMVTVSS
VL: QSVLTQPRSVSGSPGQSVTISCTGTSSDVGAYNYVSWYQQHPGKAPKLMIYDVSARPSGVPDRFSGSKSGNTASLTISGLQAEDEADYYCCSYAGSWVFGGGTKLTVL
Work on B2 yielded a koff [1] of 9.15e-05 s⁻¹.
